From publication PMC11413682, “SARS-CoV-2 ORF10 hijacking ubiquitination machinery reveals potential unique drug targeting sites” (Acta Pharmaceutica Sinica. B, 2024)

Target: T1, CUL2^ZYG11B (residues 490–728) (human, UniProt Q9C0D3 490-728)
T1 construct: human ZYG11B, substrate receptor of the cullin-2 RING E3 ligase; ARM3–ARM8 repeats, residues 490–728; also called CUL2^ZYG11B(490–728); ARM3–ARM8; source: E. coli, purified (Ni-NTA, TEV cleavage, HiTrap Q HP, gel filtration); not shown: His6, N-terminal, cleaved; SUMO, N-terminal, cleaved
T1 sequence (Q9C0D3 490-728): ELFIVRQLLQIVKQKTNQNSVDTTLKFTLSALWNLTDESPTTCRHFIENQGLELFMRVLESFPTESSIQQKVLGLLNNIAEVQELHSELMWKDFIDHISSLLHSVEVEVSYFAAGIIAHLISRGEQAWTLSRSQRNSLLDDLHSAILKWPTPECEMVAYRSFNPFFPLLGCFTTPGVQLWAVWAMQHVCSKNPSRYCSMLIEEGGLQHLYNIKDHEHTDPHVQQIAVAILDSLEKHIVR
Assay: ITC; MicroCal iTC200; peptides (0.5–1 mmol/L) in the syringe, CUL2^ZYG11B(490–728) (0.03 mmol/L) in the cell; 18 injections of 2 μL; repeated 3 times
Details: both partners purified

B1: SARS-CoV-2 ORF10 N5 peptide (peptide)
peptide: GYINV
notes: first five residues of the SARS-CoV-2 ORF10 N-terminal extension; also called five-residue peptide; source: synthetic peptide
Kd: 2940 nM
